Results taken from the Human Domainome abundance scans (Beltran et al. 2025).
± gives the uncertainty stated by the source.

B1: RUN and FYVE domain-containing protein 1, residues 639 to 698; numbered along this chain, Q96T51 (parent)
chain: WLKDDEATHCRQCEKEFSISRRKHHCRNCGHIFCNTCSSNELALPSYPKPVRVCDSCHTL

Variants of: B1
Test: abundance fitness (aPCA) (normalised: wild type 0, dead -1); higher = more abundant; growth selection in yeast, the domain comes from the species named
Settings: Homo sapiens

Abundance fitness of substitutions, site by site:
E14: A -0.08 ± 0.033; W -0.24 ± 0.055; N -0.459 ± 0.092; I -0.167 ± 0.061; L -0.377 ± 0.044; Q -0.113 ± 0.065; D -0.083 ± 0.07; H -0.127 ± 0.081; R -0.431 ± 0.049; G 0.006 ± 0.034; P -0.856 ± 0.12; M -0.212 ± 0.053; V -0.41 ± 0.045; F -0.204 ± 0.05; S -0.168 ± 0.041; C -0.243 ± 0.064; K -0.439 ± 0.065
C13: M -0.943 ± 0.094; Q -0.806 ± 0.086; T -0.83 ± 0.079; K -1.07 ± 0.14; P -0.984 ± 0.12; F -0.707 ± 0.12; I -1.01 ± 0.28; H -0.975 ± 0.17; E -0.738 ± 0.07; V -0.951 ± 0.059; D -0.874 ± 0.13; L -0.913 ± 0.058; W -0.82 ± 0.073; S -0.899 ± 0.081; N -0.712 ± 0.12; R -0.802 ± 0.061; G -0.684 ± 0.064
S18: A -0.33 ± 0.037; F -0.352 ± 0.057; C 0.007 ± 0.046; D 0.06 ± 0.055
H9: R -0.23 ± 0.036; Q -0.248 ± 0.061; F -0.135 ± 0.049; N -0.046 ± 0.062; E -0.418 ± 0.08; Y -0.357 ± 0.06; I -0.216 ± 0.07; K -0.09 ± 0.046; P -0.822 ± 0.079; W -0.532 ± 0.057; G -0.22 ± 0.05; S -0.115 ± 0.036; M -0.108 ± 0.046; T -0.221 ± 0.045; A 0.136 ± 0.047
K15: H -0.074 ± 0.056; I -0.143 ± 0.062; N -0.058 ± 0.066; M -0.373 ± 0.091; C -0.196 ± 0.049; T -0.154 ± 0.046; S -0.098 ± 0.034; E -0.009 ± 0.049; R -0.053 ± 0.029; L -0.188 ± 0.037; W -0.449 ± 0.049; A -0.527 ± 0.053; D -0.233 ± 0.075; Q -0.082 ± 0.047; P -0.999 ± 0.095; V -0.359 ± 0.048; Y -0.191 ± 0.062; G -0.088 ± 0.041
F17: Y -0.769 ± 0.12; D -0.467 ± 0.087; T -0.574 ± 0.063; E -0.68 ± 0.065; G -0.793 ± 0.052; I -0.397 ± 0.12; P -0.624 ± 0.082; L -0.218 ± 0.034; V -0.662 ± 0.051; K -0.676 ± 0.087; S -0.709 ± 0.06; A -0.927 ± 0.078; M -0.571 ± 0.074; R -0.677 ± 0.042; W -0.381 ± 0.04; H -0.65 ± 0.12; N -1.02 ± 0.2; Q -0.765 ± 0.084
E16: H -0.089 ± 0.1; G -0.18 ± 0.036; A -0.286 ± 0.04; S -0.179 ± 0.04; W -0.638 ± 0.064; L -0.314 ± 0.041; R -0.412 ± 0.043; F -0.245 ± 0.074; Q -0.329 ± 0.077; N -0.029 ± 0.06; P -0.195 ± 0.055; K -0.387 ± 0.08; C -0.29 ± 0.043; V -0.282 ± 0.048; T -0.339 ± 0.062; Y -0.349 ± 0.071; D -0.123 ± 0.074
Q12: F -0.458 ± 0.087; G 0.208 ± 0.034; T -0.565 ± 0.051; W -0.69 ± 0.078; K -0.449 ± 0.064; D -0.051 ± 0.053; I -0.068 ± 0.11; L -0.298 ± 0.039; H -0.27 ± 0.072; P -1.17 ± 0.13; M -0.27 ± 0.055; Y -0.279 ± 0.082; N -0.106 ± 0.085; R -0.303 ± 0.051; E -0.225 ± 0.047; C 0.039 ± 0.052; S -0.412 ± 0.051; A -0.171 ± 0.044
R11: S 0.203 ± 0.04; F -0.023 ± 0.056; G 0.127 ± 0.035; K 0.229 ± 0.053; H 0.044 ± 0.068; D 0.057 ± 0.066; P -0.03 ± 0.053; E 0.079 ± 0.038; V -0.155 ± 0.04; A 0.227 ± 0.032; Q 0.05 ± 0.048; L 0.161 ± 0.034; N -0.093 ± 0.12; W 0.224 ± 0.056; T 0.044 ± 0.052; M 0.226 ± 0.044; Y 0.121 ± 0.042
C10: Q -0.678 ± 0.085; T -0.711 ± 0.072; F -0.776 ± 0.1; H -0.665 ± 0.27; K -0.766 ± 0.1; Y -0.72 ± 0.072; W -0.519 ± 0.06; I -0.636 ± 0.1; L -0.74 ± 0.069; G -0.849 ± 0.052; N -0.837 ± 0.14; M -1.02 ± 0.16; R -0.843 ± 0.058; E -0.687 ± 0.076; V -0.815 ± 0.059; A -0.765 ± 0.068
T8: P -0.187 ± 0.063; Q 0.008 ± 0.048; S -0.016 ± 0.038; K -0.026 ± 0.06; V -0.269 ± 0.046; I 0.047 ± 0.046; L -0.009 ± 0.032; M 0.022 ± 0.058; Y -0.349 ± 0.065; R -0.009 ± 0.031
